Test results: the supplement of paper PMC5998384

Legend:
HeLa Kyoto [1] = assay: solubility in G1/S (NP-40 vs SDS abundance) (log2 ratio); higher = more soluble; details: cell cycle stage: G1/S
HeLa Kyoto [2] = assay: solubility change mitosis vs G1/S (difference of NP-40 vs SDS log2 ratios) (log2 ratio difference); higher = more soluble in mitosis
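Wherever solubility change mitosis vs G1/S (difference of NP-40 vs SDS log2 ratios) is given: synchronized HeLa Kyoto cells (double thymidine block for G1/S, nocodazole release for mitosis), protein amounts in NP-40 versus SDS lysates quantified by mass spectrometry, three biological replicates.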
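Wherever solubility in G1/S (NP-40 vs SDS abundance) is given: HeLa Kyoto cells arrested at G1/S by double thymidine block, proteins quantified by TMT10plex mass spectrometry in mild NP-40 versus SDS extracts, three biological replicates.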

Sequence	solubility in G1/S (log2) (HeLa Kyoto [1])	solubility change mitosis (log2) (HeLa Kyoto [2])
MSKGRAEAAAGAAGILLRYLQEQNRPYSSQDVFGNLQREHGLGKAVVVKTLEQLAQQGKIKEKMYGKQKIYFADQDQFDMVSDADLQVLDGKIVALTAKVQSLQQSCRYMEAELKELSSALTTPEMQKEIQELKKECAGYRERLKNIKAATNHVTPEEKEQVYRERQKYCKEWRKRKRMATELSDAILEGYPKSKKQFFEEVGIETDEDYNVTLPDP [PSMC3IP]	0.125	0.072
MSKTFLRPKVSSTKVTDWVDPSFDDFLECSGVSTITATSLGVNNSSHRRKNGPSTLESSRFPARKRGNLSSLEQIYGLENSKEYLSENEPWVDKYKPETQHELAVHKKKIEEVETWLKAQVLERQPKQGGSILLITGPPGCGKTTTLKILSKEHGIQVQEWINPVLPDFQKDDFKGMFNTESSFHMFPYQSQIAVFKEFLLRATKYNKLQMLGDDLRTDKKIILVEDLPNQFYRDSHTLHEVLRKYVRIGRCPLIFIISDSLSGDNNQRLLFPKEIQEECSISNISFNPVAPTIMMKFLNRIVTIEANKNGGKITVPDKTSLELLCQGCSGDIRSAINSLQFSSSKGENNLRPRKKGMSLKSDAVLSKSKRRKKPDRVFENQEVQAIGGKDVSLFLFRALGKILYCKRASLTELDSPRLPSHLSEYERDTLLVEPEEVVEMSHMPGDLFNLYLHQNYIDFFMEIDDIVRASEFLSFADILSGDWNTRSLLREYSTSIATRGVMHSNKARGYAHCQGGGSSFRPLHKPQWFLINKKYRENCLAAKALFPDFCLPALCLQTQLLPYLALLTIPMRNQAQISFIQDIGRLPLKRHFGRLKMEALTDREHGMIDPDSGDEAQLNGGHSAEESLGEPTQATVPETWSLPLSQNSASELPASQPQPFSAQGDMEENIIIEDYESDGT [RAD17]	-0.0641	0.000111
MSLERELRQLSKAKAKAQRAGQRREEAALCHQLGELLAGHGRYAEALEQHWQELQLRERADDPLGCAVAHRKIGERLAEMEDYPAALQHQHQYLELAHSLRNHTELQRAWATIGRTHLDIYDHCQSRDALLQAQAAFEKSLAIVDEELEGTLAQGELNEMRTRLYLNLGLTFESLQQTALCNDYFRKSIFLAEQNHLYEDLFRARYNLGTIHWRAGQHSQAMRCLEGARECAHTMRKRFMESECCVVIAQVLQDLGDFLAAKRALKKAYRLGSQKPVQRAAICQNLQHVLAVVRLQQQLEEAEGRDPQGAMVICEQLGDLFSKAGDFPRAAEAYQKQLRFAELLDRPGAERAIIHVSLATTLGDMKDHHGAVRHYEEELRLRSGNVLEEAKTWLNIALSREEAGDAYELLAPCFQKALSCAQQAQRPQLQRQVLQHLHTVQLRLQPQEAPETETRLRELSVAEDEDEEEEAEEAAATAESEALEAGEVELSEGEDDTDGLTPQLEEDEELQGHLGRRKGSKWNRRNDMGETLLHRACIEGQLRRVQDLVRQGHPLNPRDYCGWTPLHEACNYGHLEIVRFLLDHGAAVDDPGGQGCEGITPLHDALNCGHFEVAELLLERGASVTLRTRKGLSPLETLQQWVKLYRRDLDLETRQKARAMEMLLQAAASGQDPHSSQAFHTPSSLLFDPETSPPLSPCPEPPSNSTRLPEASQAHVRVSPGQAAPAMARPRRSRHGPASSSSSSEGEDSAGPARPSQKRPRCSATAQRVAAWTPGPASNREAATASTSRAAYQAAIRGVGSAQSRLGPGPPRGHSKALAPQAALIPEEECLAGDWLELDMPLTRSRRPRPRGTGDNRRPSSTSGSDSEESRPRARAKQVRLTCMQSCSAPVNAGPSSLASEPPGSPSTPRVSEPSGDSSAAGQPLGPAPPPPIRVRVQVQDHLFLIPVPHSSDTHSVAWLAEQAAQRYYQTCGLLPRLTLRKEGALLAPQDLIPDVLQSNDEVLAEVTSWDLPPLTDRYRRACQSLGQGEHQQVLQAVELQGLGLSFSACSLALDQAQLTPLLRALKLHTALRELRLAGNRLGDKCVAELVAALGTMPSLALLDLSSNHLGPEGLRQLAMGLPGQATLQSLEELDLSMNPLGDGCGQSLASLLHACPLLSTLRLQACGFGPSFFLSHQTALGSAFQDAEHLKTLSLSYNALGAPALARTLQSLPAGTLLHLELSSVAAGKGDSDLMEPVFRYLAKEGCALAHLTLSANHLGDKAVRDLCRCLSLCPSLISLDLSANPEISCASLEELLSTLQKRPQGLSFLGLSGCAVQGPLGLGLWDKIAAQLRELQLCSRRLCAEDRDALRQLQPSRPGPGECTLDHGSKLFFRRL [TONSL]	-0.116	0.119
MSQKQEEENPAEETGEEKQDTQEKEGILPERAEEAKLKAKYPSLGQKPGGSDFLMKRLQKGQKYFDSGDYNMAKAKMKNKQLPSAGPDKNLVTGDHIPTPQDLPQRKSSLVTSKLAGGQVE [ENSA]	-0.789	0.654
MSRQAKDDFLRHYTVSDPRTHPKGYTEYKVTAQFISKKDPEDVKEVVVWKRYSDFRKLHGDLAYTHRNLFRRLEEFPAFPRAQVFGRFEASVIEERRKGAEDLLRFTVHIPALNNSPQLKEFFRGGEVTRPLEVSRDLHILPPPLIPTPPPDDPRLSQLLPAERRGLEELEVPVDPPPSSPAQEALDLLFNCESTEEASGSPARGPLTEAELALFDPFSKEEGAAPSPTHVAELATMEVESARLDQEPWEPGGQEEEEDGEGGPTPAYLSQATELITQALRDEKAGAYAAALQGYRDGVHVLLQGVPSDPLPARQEGVKKKAAEYLKRAEEILRLHLSQLPP [SNX15]	0.365	-0.104
MSRRRFDCRSISGLLTTTPQIPIKMENFNNFYILTSKELGRGKFAVVRQCISKSTGQEYAAKFLKKRRRGQDCRAEILHEIAVLELAKSCPRVINLHEVYENTSEIILILEYAAGGEIFSLCLPELAEMVSENDVIRLIKQILEGVYYLHQNNIVHLDLKPQNILLSSIYPLGDIKIVDFGMSRKIGHACELREIMGTPEYLAPEILNYDPITTATDMWNIGIIAYMLLTHTSPFVGEDNQETYLNISQVNVDYSEETFSSVSQLATDFIQSLLVKNPEKRPTAEICLSHSWLQQWDFENLFHPEETSSSSQTQDHSVRSSEDKTSKSSCNGTCGDREDKENIPEDSSMVSKRFRFDDSLPNPHELVSDLLC [STK17B]	0.0558	-0.161
MSRRTRCEDLDELHYQDTDSDVPEQRDSKCKVKWTHEEDEQLRALVRQFGQQDWKFLASHFPNRTDQQCQYRWLRVLNPDLVKGPWTKEEDQKVIELVKKYGTKQWTLIAKHLKGRLGKQCRERWHNHLNPEVKKSCWTEEEDRIICEAHKVLGNRWAEIAKMLPGRTDNAVKNHWNSTIKRKVDTGGFLSESKDCKPPVYLLLELEDKDGLQSAQPTEGQGSLLTNWPSVPPTIKEEENSEEELAAATTSKEQEPIGTDLDAVRTPEPLEEFPKREDQEGSPPETSLPYKWVVEAANLLIPAVGSSLSEALDLIESDPDAWCDLSKFDLPEEPSAEDSINNSLVQLQASHQQQVLPPRQPSALVPSVTEYRLDGHTISDLSRSSRGELIPISPSTEVGGSGIGTPPSVLKRQRKRRVALSPVTENSTSLSFLDSCNSLTPKSTPVKTLPFSPSQFLNFWNKQDTLELESPSLTSTPVCSQKVVVTTPLHRDKTPLHQKHAAFVTPDQKYSMDNTPHTPTPFKNALEKYGPLKPLPQTPHLEEDLKEVLRSEAGIELIIEDDIRPEKQKRKPGLRRSPIKKVRKSLALDIVDEDVKLMMSTLPKSLSLPTTAPSNSSSLTLSGIKEDNSLLNQGFLQAKPEKAAVAQKPRSHFTTPAPMSSAWKTVACGGTRDQLFMQEKARQLLGRLKPSHTSRTLILS [MYBL2]	0.219	-0.187
MSTTLLSAFYDVDFLCKTEKSLANLNLNNMLDKKAVGTPVAAAPSSGFAPGFLRRHSASNLHALAHPAPSPGSCSPKFPGAANGSSCGSAAAGGPTSYGTLKEPSGGGGTALLNKENKFRDRSFSENGDRSQHLLHLQQQQKGGGGSQINSTRYKTELCRPFEESGTCKYGEKCQFAHGFHELRSLTRHPKYKTELCRTFHTIGFCPYGPRCHFIHNADERRPAPSGGASGDLRAFGTRDALHLGFPREPRPKLHHSLSFSGFPSGHHQPPGGLESPLLLDSPTSRTPPPPSCSSASSCSSSASSCSSASAASTPSGAPTCCASAAAAAAAALLYGTGGAEDLLAPGAPCAACSSASCANNAFAFGPELSSLITPLAIQTHNFAAVAAAAYYRSQQQQQQQGLAPPAQPPAPPSATLPAGAAAPPSPPFSFQLPRRLSDSPVFDAPPSPPDSLSDRDSYLSGSLSSGSLSGSESPSLDPGRRLPIFSRLSISDD [ZFP36L2]	0.322	-0.261
MSYRRELEKYRDLDEDEILGALTEEELRTLENELDELDPDNALLPAGLRQKDQTTKAPTGPFKREELLDHLEKQAKEFKDREDLVPYTGEKRGKVWVPKQKPLDPVLESVTLEPELEEALANASDAELCDIAAILGMHTLMSNQQYYQALSSSSIMNKEGLNSVIKPTQYKPVPDEEPNSTDVEETLERIKNNDPKLEEVNLNNIRNIPIPTLKAYAEALKENSYVKKFSIVGTRSNDPVAYALAEMLKENKVLKTLNVESNFISGAGILRLVEALPYNTSLVEMKIDNQSQPLGNKVEMEIVSMLEKNATLLKFGYHFTQQGPRLRASNAMMNNNDLVRKRRLADLTGPIIPKCRSGV [TMOD1]	0.122	0.357
MTDPFCVGGRRLPGSSKSGPGKDGSRKEVRLPMLHDPPKMGMPVVRGGQTVPGQAPLCFDPGSPASDKTEGKKKGRPKAENQALRDIPLSLMNDWKDEFKAHSRVKCPNSGCWLEFPSIYGLKYHYQRCQGGAISDRLAFPCPFCEAAFTSKTQLEKHRIWNHMDRPLPASKPGPISRPVTISRPVGVSKPIGVSKPVTIGKPVGVSKPIGISKPVSVGRPMPVTKAIPVTRPVPVTKPVTVSRPMPVTKAMPVTKPITVTKSVPVTKPVPVTKPITVTKLVTVTKPVPVTKPVTVSRPIVVSKPVTVSRPIAISRHTPPCKMVLLTRSENKAPRATGRNSGKKRAADSLDTCPIPPKQARPENGEYGPSSMGQSSAFQLSADTSSGSLSPGSRPSGGMEALKAAGPASPPEEDPERTKHRRKQKTPKKFTGEQPSISGTFGLKGLVKAEDKARVHRSKKQEGPGPEDARKKVPAAPITVSKEAPAPVAHPAPGGPEEQWQRAIHERGEAVCPTCNVVTRKTLVGLKKHMEVCQKLQDALKCQHCRKQFKSKAGLNYHTMAEHSAKPSDAEASEGGEQEERERLRKVLKQMGRLRCPQEGCGAAFSSLMGYQYHQRRCGKPPCEVDSPSFPCTHCGKTYRSKAGHDYHVRSEHTAPPPEEPTDKSPEAEDPLGVERTPSGRVRRTSAQVAVFHLQEIAEDELARDWTKRRMKDDLVPETARLNYTRPGLPTLNPQLLEAWKNEVKEKGHVNCPNDCCEAIYSSVSGLKAHLASCSKGAHLAGKYRCLLCPKEFSSESGVKYHILKTHAENWFRTSADPPPKHRSQDSLVPKKEKKKNLAGGKKRGRKPKERTPEEPVAKLPPRRDDWPPGCRDKGARGSTGRKVGVSKAPEK [ZNF512B]	-0.767	0.776
MTEKAPEPHVEEDDDDELDSKLNYKPPPQKSLKELQEMDKDDESLIKYKKTLLGDGPVVTDPKAPNVVVTRLTLVCESAPGPITMDLTGDLEALKKETIVLKEGSEYRVKIHFKVNRDIVSGLKYVQHTYRTGVKVDKATFMVGSYGPRPEEYEFLTPVEEAPKGMLARGTYHNKSFFTDDDKQDHLSWEWNLSIKKEWTE [ARHGDIB]	0.0837	-0.0572
